According to patent US20240132578A1:

Key:
Test in all cases: cell-based or functional assay
[1] = target: HIV-1 Env of pseudovirus MGRM-F1-013 (HIV-1)
[2] = target: HIV-1 Env of pseudovirus MGRM-F1-014 (HIV-1)
[3] = target: HIV-1 Env of pseudovirus MGRM-F1-023 (HIV-1)
[4] = target: HIV-1 Env of isolate 92RW008 (subtype A) (HIV-1)
[5] = target: HIV-1 Env of isolate 92UG046 (HIV-1)
[6] = target: HIV-1 Env of isolate MG RM-A-006 (pseudovirus) (HIV-1)
[7] = target: HIV-1 Env of isolate MG RM-A-009 (pseudovirus) (HIV-1)
[8] = target: HIV-1 Env of isolate MGRM-D-008 (HIV-1)
[9] = target: HIV-1 Env of pseudovirus isolate APV-17 (clade B) (HIV-1)
[10] = target: HIV-1 Env of pseudovirus isolate CAAN.A2 (clade B) (HIV-1)
[11] = target: HIV-1 Env of isolate 92WR009 (pseudovirus) (HIV-1)
[12] = target: HIV-1 Env of isolate MGRM-A-001 (pseudovirus) (HIV-1)
[13] = target: HIV-1 Env of isolate MGRM-AG-001 (subtype AG) (HIV-1)
[14] = target: HIV-1 Env of isolate MGRM-AG-005 (subtype AG) (HIV-1)
[15] = target: HIV-1 Env of isolate MGRM-AG-012 (subtype AG) (HIV-1)
[16] = target: HIV-1 Env of isolate MGRM-C-005 (HIV-1)
[17] = target: HIV-1 Env of isolate MGRM-Chronic-B-002 (HIV-1)
[18] = target: HIV-1 Env of isolate MGRM-F1-013 (HIV-1)
[19] = target: HIV-1 Env of isolate MGRM-F1-020 (HIV-1)
[20] = target: HIV-1 Env of pseudovirus isolate MGRM-C-013 (clade C) (HIV-1)
[21] = target: HIV-1 Env of pseudovirus isolate MGRM-C-015 (clade C) (HIV-1)
[22] = target: HIV-1 Env of pseudovirus isolate MGRM-C-019 (clade C) (HIV-1)
[23] = target: HIV-1 CMU02 envelope protein (Env) on pseudovirus (HIV-1)
[24] = target: HIV-1 92UG005 Env (HIV-1)
[25] = target: HIV-1 92UG024 Env (HIV-1)

Sequence of PGT-143 (4980_N08) (antibody) (VH): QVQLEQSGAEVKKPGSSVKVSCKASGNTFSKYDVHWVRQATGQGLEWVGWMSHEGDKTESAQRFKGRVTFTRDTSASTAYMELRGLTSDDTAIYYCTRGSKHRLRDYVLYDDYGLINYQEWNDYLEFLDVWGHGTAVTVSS
Sequence of PGT-143 (4980_N08) (antibody) (VL): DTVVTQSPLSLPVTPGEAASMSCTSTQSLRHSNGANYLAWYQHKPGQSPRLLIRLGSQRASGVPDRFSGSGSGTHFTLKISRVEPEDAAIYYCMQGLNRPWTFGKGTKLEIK
Sequence of PGT-141 (4964_G22; 4993_K13) (antibody) (VH): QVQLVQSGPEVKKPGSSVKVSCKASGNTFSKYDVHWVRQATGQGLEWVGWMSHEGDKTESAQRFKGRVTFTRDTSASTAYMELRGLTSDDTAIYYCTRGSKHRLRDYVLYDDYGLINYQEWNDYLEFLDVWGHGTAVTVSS
Sequence of PGT-141 (4964_G22; 4993_K13) (antibody) (VL): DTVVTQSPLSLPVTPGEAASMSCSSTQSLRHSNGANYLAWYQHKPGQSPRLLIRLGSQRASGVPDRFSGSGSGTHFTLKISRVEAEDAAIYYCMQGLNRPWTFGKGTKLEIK
Sequence of PGT-144 (4970_K22) (antibody) (VH): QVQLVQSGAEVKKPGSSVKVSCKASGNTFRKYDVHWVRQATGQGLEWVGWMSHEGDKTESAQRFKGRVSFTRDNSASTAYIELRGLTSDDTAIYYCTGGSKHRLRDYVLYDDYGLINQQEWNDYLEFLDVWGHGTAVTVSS
Sequence of PGT-144 (4970_K22) (antibody) (VL): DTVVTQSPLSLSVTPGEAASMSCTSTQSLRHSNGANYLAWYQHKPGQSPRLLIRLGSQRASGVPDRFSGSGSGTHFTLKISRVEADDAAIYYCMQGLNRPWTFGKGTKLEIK
Sequence of PGT-145 (4995_P16) (antibody) (VH): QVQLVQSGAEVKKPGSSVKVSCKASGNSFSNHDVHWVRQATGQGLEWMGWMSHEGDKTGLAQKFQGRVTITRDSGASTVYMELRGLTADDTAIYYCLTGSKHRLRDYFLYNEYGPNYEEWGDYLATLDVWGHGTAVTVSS
Sequence of PGT-145 (4995_P16) (antibody) (VL): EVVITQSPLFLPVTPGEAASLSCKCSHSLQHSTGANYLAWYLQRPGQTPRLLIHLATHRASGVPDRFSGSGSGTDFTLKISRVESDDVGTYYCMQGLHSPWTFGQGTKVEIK
Sequence of PGT-142 (4995_E20) (antibody) (VH): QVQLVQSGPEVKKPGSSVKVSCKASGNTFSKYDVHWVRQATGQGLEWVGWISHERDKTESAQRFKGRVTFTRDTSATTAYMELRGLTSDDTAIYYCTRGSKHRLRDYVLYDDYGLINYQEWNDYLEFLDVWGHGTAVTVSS

Substance | IC50, pseudovirus neutralization [1] | IC50, pseudovirus neutralization [2] | IC50, pseudovirus neutralization [3] | IC50, pseudovirus neutralization [4] | IC50 (µg/mL), pseudovirus neutralization [5] | IC50 (µg/mL), single-round pseudovirus neutralization [6] | IC50 (µg/mL), single-round pseudovirus neutralization [7] | IC50 (µg/mL), pseudovirus neutralization [8] | IC50, pseudovirus neutralization [9] | IC50, pseudovirus neutralization [10] | IC50 (µg/mL), pseudovirus neutralization [11] | IC50 (µg/mL), pseudovirus neutralization [12] | IC50, pseudovirus neutralization [13] | IC50, pseudovirus neutralization [14] | IC50, pseudovirus neutralization [15] | IC50 (µg/mL), pseudovirus neutralization [16] | IC50 (µg/mL), pseudovirus neutralization [17] | IC50 (µg/mL), pseudovirus neutralization [18] | IC50 (µg/mL), pseudovirus neutralization [19] | IC50, pseudovirus neutralization [20] | further results
PGT-141 (4964_G22; 4993_K13) (antibody) | 0.043 µg/mL | 0.001 µg/mL | 0.307 µg/mL |  |  |  |  |  |  |  |  |  |  |  |  |  |  |  |  |  | 
PGT-145 (4995_P16) (antibody) | 0.402 µg/mL | 0.009 µg/mL | 5.88 µg/mL |  |  |  |  |  |  |  |  |  |  |  |  |  |  |  |  |  | 
VRC01 (antibody) | 0.17 µg/mL | 0.056 µg/mL | 0.392 µg/mL | 0.037 µg/mL | 12.7 µg/mL | 0.521 µg/mL | 0.118 µg/mL | 0.854 µg/mL | 0.477 µg/mL | 0.722 µg/mL |  |  |  |  |  |  |  |  |  |  | 
4995_P16 (PGT-145) (antibody) |  |  |  | 0.4 µg/mL | > 50 µg/mL | > 50 µg/mL | 0.235 µg/mL | 0.025 µg/mL | 0.488 µg/mL | 7.08 µg/mL |  |  |  |  |  |  |  |  |  |  | 
PGT-144 (4970_K22) (antibody) | 0.509 µg/mL | 0.014 µg/mL | 1.16 µg/mL |  |  |  |  |  |  |  |  |  |  |  |  |  |  |  |  |  | 
5345_I01 (PGT-137) (antibody) |  |  |  |  |  |  |  |  |  |  | > 50 µg/mL | > 50 µg/mL | > 50 µg/mL | > 50 µg/mL | > 50 µg/mL | > 50 µg/mL | > 50 µg/mL | > 50 µg/mL | 1.93 µg/mL | > 50 µg/mL | IC50, pseudovirus neutralization [21]: 1.98 µg/mL; IC50, pseudovirus neutralization [22]: > 50 µg/mL
4995_E20 (PGT-142) (antibody) |  |  |  | 0.447 µg/mL | > 50 µg/mL | > 50 µg/mL | 0.058 µg/mL | 0.174 µg/mL | 0.628 µg/mL | > 50 µg/mL |  |  |  |  |  |  |  |  |  |  | 
5114_A19 (PGT-128) (antibody) |  |  |  |  |  |  |  |  |  |  | 0.812 µg/mL | > 50 µg/mL | 4.73 µg/mL | 0.037 µg/mL | > 50 µg/mL | 0.03 µg/mL | 0.036 µg/mL | 12.7 µg/mL | 0.355 µg/mL | > 50 µg/mL | IC50, pseudovirus neutralization [21]: 0.196 µg/mL; IC50, pseudovirus neutralization [22]: 0.01 µg/mL
4970_K22 (PGT-144) (antibody) |  |  |  | > 50 µg/mL | > 50 µg/mL | > 50 µg/mL | 2.83 µg/mL | 9.85 µg/mL | 10.3 µg/mL | > 50 µg/mL |  |  |  |  |  |  |  |  |  |  | 
5329_C19 (PGT-136) (antibody) |  |  |  |  |  |  |  |  |  |  | > 50 µg/mL | > 50 µg/mL | > 50 µg/mL | > 50 µg/mL | > 50 µg/mL | > 50 µg/mL | > 50 µg/mL | > 50 µg/mL | 9.31 µg/mL | > 50 µg/mL | IC50 (ug/mL), pseudovirus neutralization [23]: > 10 µg/mL; IC50, pseudovirus neutralization [21]: 11.1 µg/mL; IC50, pseudovirus neutralization [22]: 20.1 µg/mL
5343_B08 (PGT-135) (antibody) |  |  |  |  |  |  |  |  |  |  | > 50 µg/mL | > 50 µg/mL | > 50 µg/mL | > 50 µg/mL | 41.9 µg/mL | > 50 µg/mL | > 50 µg/mL | 21.1 µg/mL | 0.168 µg/mL | > 50 µg/mL | IC50 (ug/mL), pseudovirus neutralization [23]: > 10 µg/mL; IC50, pseudovirus neutralization [21]: 0.104 µg/mL; IC50, pseudovirus neutralization [22]: 0.264 µg/mL
PGT-143 (4980_N08) (antibody) | 0.013 µg/mL | 0.001 µg/mL | 0.972 µg/mL |  |  |  |  |  |  |  |  |  |  |  |  |  |  |  |  |  | 
4980_N08 (PGT-143) (antibody) |  |  |  | 0.385 µg/mL | > 50 µg/mL | > 50 µg/mL | 0.05 µg/mL | 0.153 µg/mL | 1.11 µg/mL | > 50 µg/mL |  |  |  |  |  |  |  |  |  |  | 
PGT-142 (4995_E20) (antibody) | 0.023 µg/mL | 0.001 µg/mL | 0.602 µg/mL |  |  |  |  |  |  |  |  |  |  |  |  |  |  |  |  |  | 
5147_N06 (PGT-130) (antibody) |  |  |  |  |  |  |  |  |  |  | 1.27 µg/mL | > 50 µg/mL | > 50 µg/mL | 0.54 µg/mL | > 50 µg/mL | 0.935 µg/mL | > 50 µg/mL | > 50 µg/mL | 9.73 µg/mL | > 50 µg/mL | IC50, pseudovirus neutralization [24]: 0.474 µg/mL; IC50, pseudovirus neutralization [25]: > 10 µg/mL; IC50 (ug/mL), pseudovirus neutralization [23]: > 10 µg/mL; IC50, pseudovirus neutralization [21]: 0.344 µg/mL; IC50, pseudovirus neutralization [22]: 0.01 µg/mL
4993_K13 (PGT-141) (antibody) |  |  |  | 0.579 µg/mL | > 50 µg/mL | > 50 µg/mL | 0.029 µg/mL | 0.371 µg/mL | 0.59 µg/mL | > 50 µg/mL |  |  |  |  |  |  |  |  |  |  | 
